# ± gives the standard deviation.
# Assay: protein stability index of a GFP-peptide fusion (GPS, HEK-293T) (PSI 1-6); higher = more stable
# Conditions: c terminus: a fixed tail appended
# 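Note: 24-mer peptide tiles fused after GFP, lentivirally expressed, FACS-sorted into six equal bins by GFP/DsRed ratio, decoded by Illumina sequencing, PSI is the read-weighted mean bin number.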
Sequence,protein stability index (treatment: DMSO),"protein stability index (treatment: MLN4924 1 uM, 8 h)"
MTMTTMPESLNSPVSGKAVFMEFG [DLX1],2.42 ± 0.16,2.57 ± 0.21
LQTDHYAALLGSNSESWGWDIGRG [SPSB2],3 ± 0.032,3.02 ± 0.13
QFTKPNASLGDVQSGATISMPCST [SASS6],4.14 ± 0.38,4.06 ± 0.69
FRVNCYPGIDIREDLAQKLNLEED [HESX1],3.52 ± 0.34,3.69 ± 0.35
RHWCMKHDELLAEHIKSLLIKNNS [INTS3],2.29 ± 0.12,2.38 ± 0.33
TQHHFAFQNAERAFKAAALIQRWY [PPEF2],3.09 ± 0.14,3.08 ± 0.18
MSSENCFVAENSSLHPESGQENDA [CD69],5.71 ± 0.19,5.54 ± 0.096
KQYQQRAFGWFRCSSCQRSWASAQ [RTP4],2.39 ± 0.34,2.25 ± 0.54
RYILPVYGICREPVGLVMEYMETG [RIPK4],2.12 ± 0.62,2.69 ± 0.55
AFAFQNTFPHSISAKNTSHPGSGT [SASS6],3.36 ± 0.39,3.45 ± 0.45
LELKFVSSLRRQFEFSVDSFQIVL [TENT5D],3.41 ± 0.5,2.91 ± 0.23
KRIEAEEAIKGLNGQKPLGAAEPI [ELAVL3],4.77 ± 0.16,4.951 ± 0.042
GDVLHAHLDIWKSAAWMKERTSPG [SPDEF],2.92 ± 0.48,3.06 ± 0.46
NVPLSISRLTPGGKAAQAGVAVGD [PDLIM7],4.05 ± 0.23,4.18 ± 0.13
VGYGDMHPVTIGGKIVGSLCAIAG [KCNA3],2.67 ± 0.11,2.26 ± 0.35
SARYVLPDEAARARLLQEGGGGVA [DUSP5],4.33 ± 0.19,4.13 ± 0.17
EIYKRFLTRMTRVSEFLKVAEQVG [SNAP91],2.44 ± 0.63,2.45 ± 0.24
SLYENDCIFDKFECVWNGSDSVIM [PPP2R2B],2.06 ± 0.71,2.07 ± 0.37
RLGELFNPYYDPLQWKSSHFERRD [CHGB],2.45 ± 0.28,2.64 ± 0.24
QHTPDQANSDRASIGRRRTELRRS [PLEKHN1],4.95 ± 0.38,5.34 ± 0.19
SDFEWLKNELERDSKIVVPPLPGK [SNX12],4.07 ± 0.32,4.13 ± 0.14
GLSAEDGVWAVIISHQQCWASTSP [TRIM15],2.88 ± 0.51,2.39 ± 0.73
LSASKDRTMRLWNIEEIDEIPLVI [WDR88],2.19 ± 0.21,2.39 ± 0.14

Sequence,protein stability index (treatment: DMSO),"protein stability index (treatment: MLN4924 1 uM, 8 h)"
LVQKDQHSFELDEKALASILLQDH [ATL3],3.43 ± 0.35,3.38 ± 0.28
EPEQTGADAAEDEEVDVTSVDPIA [RBBP5],5.64 ± 0.18,5.55 ± 0.33
PPVWYLKEEDHYQRARKEREKEDY [RHOBTB2],5.16 ± 0.12,5.22 ± 0.16
LAEVAPVVTTEHILVSVAAGVSLS [PYCR3],2.22 ± 0.27,2.44 ± 0.21
FDTFIQKTKKLYIDSRARRNLGSI [SEC22B],2.48 ± 0.5,2.22 ± 0.12
YLTNCEKLSAKSLQTLRSFSHTLV [ZER1],2.3 ± 0.16,2.24 ± 0.38
RMSYGGSTCHAYSNTRDRYGRSWE [RBMY1A1],2.62 ± 0.21,2.46 ± 0.099
DVVALLINHGAEVTCKDKKGYTPL [ANKRD44],2.33 ± 0.55,2.27 ± 0.48
PLKLHYQLRNVRERLAKNLVEKGV [GOLPH3],2.4 ± 0.15,2.7 ± 0.3
RTDSREQKLDAFLQPLSKPLSSQP [MLH1],4.32 ± 0.082,4.44 ± 0.14
DNLSDLVMVRWNKSLEWSPWNCIL [IQUB],2.56 ± 0.76,2.39 ± 0.34
AVMFFIVFFAYAQLGYLLFGTQVE [PKD2L1],2.7 ± 0.48,2.73 ± 0.44
TAPLPMPEGPEPAAPGKQPGRGHT [ELOA2],5.53 ± 0.15,5.27 ± 0.2
ALAVCLSFFYPVLFVLFMFFGMAF [SOAT1],2.84 ± 0.46,2.94 ± 0.75
EIENVKKQASNLETAIADAEQRGD [KRT71],5.29 ± 0.49,5.42 ± 0.3
ARLLCRLQAFGETLLLELEQDSGV [ADAMTS4],2.66 ± 1.3,2.73 ± 0.29
PESADTGDKSESPDEANVGKHPKD [TOR1AIP2],5.57 ± 0.14,5.601 ± 0.053
GCECEDGPDGQEMDPPNPEEVKTP [GAGE1],5.48 ± 0.25,5.81 ± 0.14
FACPSKTDFFKNIMNFIDIVAIIP [KCNA1],3.29 ± 0.58,3.1 ± 0.49
HNSINQSLDESVIYGPGNLSTNNN [SLC2A12],4.68 ± 0.34,4.7 ± 0.055
IGPFGGFFASGFKRAFKIKDFANT [CDS2],2.32 ± 0.27,2.15 ± 0.4
EEKRRREEEERLRREEEERRRIEE [ACBD3],5.53 ± 0.29,5.49 ± 0.28

# — the supplement of paper PMC10567573
